Experimental data: US20070117924A1, “Biologically active material conjugated with biocompatible polymer with 1:1 complex, preparation method thereof and pharmaceutical composition comprising the same” (priority 2003, published 2007)

B1: mPEG(20000)-Hz-G-CSF (conjugate, UniProt P09919 31-207, looked up)
Granulocyte …: TPLGPASSLPQSFLLKCLEQVRKIQGDGAALQEKLVSECATYKLCHPEELVLLGHSLGIPWAPLSSCPSQALQLAGCLSQLHSGLFLYQGLLQALEGISPELGPTLDTLQLDVADFATTIWQQMEELGMAPALQPTQGAMPAFASAFQRRAGGVLVASHLQSFLEVSYRVLRHLAQP
modifications: mPEG 20 kDa via hydrazine linker

Legend:
UMR-10^6 cell line = assay: In vitro biological activity of mPEG-PTH conjugate: c-AMP synthesized in UMR-10^6 cell line; assay type: cell-based; conditions: concentration of 10-8 mole, FIG. 19
[1] = Half-life of mPEG-Hz-PTH in rats (cAMP in plasma); conditions: male rats, 100 ug/kg intravenous; FIG. 20
[2] = system: White Blood Cell (WBC) count; assay: White blood cell (WBC) count of PEG-G-CSF-treated rats; assay type: in vivo, Sprague-Dawley rats; conditions: 100 ug/kg into tail vein, blood 0-96 hrs, FIG. 9
[3] = Half life of PEG-G-CSF conjugate in rats (serum activity by cell XTT assay); conditions: 100 ug/kg intravenous, FIG. 8

Molecule	activity retained, % of unreacted PTH (c-AMP synthesized) (UMR-10^6 cell line)	time after administration at which detected [1]	detection after administration (not detected) [1]	WBC counts compared with native G-CSF and Neulasta [2]	half-life compared to native G-CSF [3]
mPEG(20000)-Hz-PTH	20%	2 h	–	–	–
unreacted PTH [reference compound]	–	–	not detected after 15 mins	–	–
mPEG(5000)-Hz-PTH	40%	–	not detected after 15 mins	–	–
mPEG(12000)-Hz-PTH	30%	1 h	–	–	–
B1	–	–	–	higher WBC counts than both native G-CSF and Neulasta™	much longer half-life compared to native G-CSF
